Data as given in patent publication US20040120958A1 (CORNELL RESEARCH FOUNDATION, published 2004).
Residue numbers refer to the chain shown, from its start.

B1: deimmunized J415 heavy chain version 4 combined with deimmunized J415 light chain version 5 (antibody, V domains shown)
VH: EVKLEESGGGLVQPGGSMKISCVASGFTFSNYWMNWVRQSPEKGLEWVAEIRSQSNNFATHYAESVKGRVIISRDDSKSSVYLQMNSLRAEDTAVYYCTRRWNNFWGQGTTVTVSS
VL: NIVMTQFPKSMSASAGERMTLTCKASENVGTYVSWYQQKPTQSPKMLIYGASNRFTGVPDRFSGSGSGTDFILTISSVQAEDLVDYYCGQSYTFPYTFGGGTKLEMK
notes: also called DIVH4/DIVK5; J415DIVH4/J415DIVK5
B2: deimmunized J415 heavy chain version 2 combined with DIVK5 (antibody, V domains shown)
VH: B1 VH with S40T, E50L
VL: B1 VL
notes: also called J415DIVH2/J415DIVK5
B3: deimmunized J415 heavy chain version 1 combined with DIVK5 (antibody, V domains shown)
VH: B1 VH with V23K, S40T, E50L
VL: B1 VL
notes: also called J415DIVH1/J415DIVK5
B4: J415 chimeric antibody (antibody, V domains shown)
VH: B1 VH with I20L, S87N, A94G, V95I, V112L
VL: B1 VL with A13I, A15V, M19V, T41E, S63T, G68A, A80T
notes: Expression vectors carry human IgG1 and kappa; also called the chimeric

Experiments:
[1] = target: T1, prostate specific membrane antigen (PSMA) on LNCaP cells (human, UniProt Q04609 1-750); assay: ELISA on plates coated with LNCap membrane preparation
T1 construct: whole, on cells; also called LNCap membrane preparation

[2] = target: T1, prostate specific membrane antigen …; assay: ELISA on plates coated with LNCap membrane preparation; purified antibody; reference J415 chimeric antibody

T1 sequence (Q04609 whole entry): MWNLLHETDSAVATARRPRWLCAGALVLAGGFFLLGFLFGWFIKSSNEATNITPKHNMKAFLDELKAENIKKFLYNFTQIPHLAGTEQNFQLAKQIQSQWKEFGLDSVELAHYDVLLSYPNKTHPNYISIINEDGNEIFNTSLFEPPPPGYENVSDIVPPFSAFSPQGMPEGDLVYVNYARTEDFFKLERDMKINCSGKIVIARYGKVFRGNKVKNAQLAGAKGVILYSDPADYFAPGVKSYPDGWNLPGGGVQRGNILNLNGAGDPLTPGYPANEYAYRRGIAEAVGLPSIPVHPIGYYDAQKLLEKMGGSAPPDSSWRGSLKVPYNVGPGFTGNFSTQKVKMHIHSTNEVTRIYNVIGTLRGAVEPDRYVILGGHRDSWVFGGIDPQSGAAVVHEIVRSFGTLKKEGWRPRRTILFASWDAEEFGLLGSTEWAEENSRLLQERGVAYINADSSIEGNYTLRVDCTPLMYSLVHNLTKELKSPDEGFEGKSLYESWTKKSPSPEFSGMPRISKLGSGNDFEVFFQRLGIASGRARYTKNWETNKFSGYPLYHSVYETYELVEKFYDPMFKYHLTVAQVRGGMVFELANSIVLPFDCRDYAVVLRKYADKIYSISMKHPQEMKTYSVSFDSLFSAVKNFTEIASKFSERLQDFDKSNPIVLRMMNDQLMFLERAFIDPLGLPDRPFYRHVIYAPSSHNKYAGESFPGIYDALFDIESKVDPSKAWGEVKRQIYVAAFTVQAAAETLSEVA

Binder	binding result [1]	fold less binding than the chimeric antibody [2] [fold]
B1	binds	
B2		2
B3		2
B4	binds	
